Data as given in patent US8003599.

Biological target: human L1 adhesion molecule (L1-CAM), wild type, on cells
Sequence (chain, as listed by the source): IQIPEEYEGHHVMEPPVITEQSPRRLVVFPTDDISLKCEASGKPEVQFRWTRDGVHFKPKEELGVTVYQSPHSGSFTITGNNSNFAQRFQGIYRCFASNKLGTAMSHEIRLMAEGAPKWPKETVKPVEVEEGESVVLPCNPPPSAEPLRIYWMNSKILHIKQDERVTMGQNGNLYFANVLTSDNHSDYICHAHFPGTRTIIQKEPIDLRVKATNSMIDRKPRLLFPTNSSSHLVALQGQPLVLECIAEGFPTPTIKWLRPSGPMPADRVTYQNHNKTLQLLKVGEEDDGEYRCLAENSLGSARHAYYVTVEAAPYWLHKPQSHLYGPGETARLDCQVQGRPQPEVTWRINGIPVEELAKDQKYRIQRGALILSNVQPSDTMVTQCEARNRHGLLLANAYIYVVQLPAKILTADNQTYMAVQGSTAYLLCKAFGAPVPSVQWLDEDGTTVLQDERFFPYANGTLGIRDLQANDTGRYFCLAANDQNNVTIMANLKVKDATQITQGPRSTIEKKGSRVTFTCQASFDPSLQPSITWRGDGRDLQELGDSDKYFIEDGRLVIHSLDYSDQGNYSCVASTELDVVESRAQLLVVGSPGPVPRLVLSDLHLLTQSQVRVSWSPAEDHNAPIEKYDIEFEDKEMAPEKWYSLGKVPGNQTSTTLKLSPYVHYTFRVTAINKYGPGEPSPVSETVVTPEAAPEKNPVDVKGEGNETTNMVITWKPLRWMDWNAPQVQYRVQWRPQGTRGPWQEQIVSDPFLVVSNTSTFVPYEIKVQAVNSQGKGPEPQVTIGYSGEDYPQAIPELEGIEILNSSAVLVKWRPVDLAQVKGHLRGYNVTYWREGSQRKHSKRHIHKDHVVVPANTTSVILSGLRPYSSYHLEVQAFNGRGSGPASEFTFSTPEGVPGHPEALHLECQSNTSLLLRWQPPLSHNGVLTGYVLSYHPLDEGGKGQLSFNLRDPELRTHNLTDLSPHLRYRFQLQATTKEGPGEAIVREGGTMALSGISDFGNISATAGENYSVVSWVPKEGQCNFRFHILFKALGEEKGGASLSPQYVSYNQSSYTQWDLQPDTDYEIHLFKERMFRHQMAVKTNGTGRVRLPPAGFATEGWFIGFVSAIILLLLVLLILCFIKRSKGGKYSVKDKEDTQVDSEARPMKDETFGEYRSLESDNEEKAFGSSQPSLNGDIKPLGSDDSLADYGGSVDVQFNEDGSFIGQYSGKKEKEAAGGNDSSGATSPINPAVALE

B1: human ADAM10 (membrane-bound metalloproteinase) (protein)
chain: TTSAEKNTCQLYIQTDHLFFKYYGTREAVIAQISSHVKAIDTIYQTTDFSGIRNISFMVKRIRINTTADEKDPTNPFRFPNIGVEKFLELNSEQNHDDYCLAYVFTDRDFDDGVLGLAWVGAPSGSSGGICEKSKLYSDGKKKSLNTGIITVQNYGSHVPPKVSHITFAHEVGHNFGSPHDSGTECTPGESKNLGQKENGNYIMYARATSGDKLNNNKFSLCSIRNISQVLEKKRNNCFVESGQPICGNGMVEQGEECDCGYSDQCKDECCFDANQPEGRKCKLKPGKQCSPSQGPCCTAQCAFKSKSEKCRDDSDCAREGICNGFTALCPASDPKPNFTDCNRHTQVCINGQCAGSICEKYGLEECTCASSDGKDDKELCHVCCMKKMDPSTCASTGSVQWSRHFSGRTITLQPGSPCNDFRGYCDVFMRCRLVDADGPLARLKKAIFSPELYENIAEWIVAHWWAVLLMGIALIMLMAGFIKICSVHTPSSNPKLPPPKPLPGTLKRRRPPQPIQQPQRQRPRESYQMGHMRR
B1 was tested, and the L1 cleavage was “L1 cleavage required the membrane-bound metalloproteinase ADAM10”.
